Target: T1, EsCas13d, nuclease-dead (Eubacterium siraeum, UniProt B0MS50, R295A;H300A;R849A;H854A)
T1 sequence: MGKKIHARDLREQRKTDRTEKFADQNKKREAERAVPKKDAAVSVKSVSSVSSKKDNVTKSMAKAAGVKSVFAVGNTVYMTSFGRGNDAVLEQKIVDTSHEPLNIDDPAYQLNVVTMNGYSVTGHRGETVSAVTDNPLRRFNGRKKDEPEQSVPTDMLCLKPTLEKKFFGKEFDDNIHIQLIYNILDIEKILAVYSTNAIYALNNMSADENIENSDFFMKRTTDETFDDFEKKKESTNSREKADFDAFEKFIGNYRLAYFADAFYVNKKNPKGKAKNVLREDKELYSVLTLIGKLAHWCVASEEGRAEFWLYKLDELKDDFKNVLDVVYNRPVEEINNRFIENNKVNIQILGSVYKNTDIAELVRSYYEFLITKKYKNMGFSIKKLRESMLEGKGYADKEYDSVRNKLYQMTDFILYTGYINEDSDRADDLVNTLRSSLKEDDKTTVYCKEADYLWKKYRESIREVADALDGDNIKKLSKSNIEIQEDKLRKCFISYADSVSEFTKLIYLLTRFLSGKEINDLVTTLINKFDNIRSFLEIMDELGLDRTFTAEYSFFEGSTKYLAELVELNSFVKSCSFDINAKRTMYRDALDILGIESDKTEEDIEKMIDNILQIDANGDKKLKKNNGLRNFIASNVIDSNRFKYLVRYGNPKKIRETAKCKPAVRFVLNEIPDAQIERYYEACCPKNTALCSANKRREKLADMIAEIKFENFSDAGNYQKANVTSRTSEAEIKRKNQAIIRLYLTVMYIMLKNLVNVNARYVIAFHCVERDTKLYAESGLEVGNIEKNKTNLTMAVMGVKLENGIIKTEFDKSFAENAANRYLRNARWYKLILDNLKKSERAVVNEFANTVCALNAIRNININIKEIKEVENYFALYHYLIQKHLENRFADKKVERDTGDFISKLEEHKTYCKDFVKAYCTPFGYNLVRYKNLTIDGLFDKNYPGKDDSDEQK
Test: crRNA (strand 1, pre-loaded); Mg2+; 40 mM Tris-HCl pH 7.5, 150 mM NaCl, 6 mM MgCl2, 1 mM DTT, 0.1% Tween-20, 0.2 mg/ml BSA; 25 C; 10 min per concentration, then washed
Conditions: tags: His6-TwinStrep-SUMO cleaved; N-terminal SNAP kept (SNAP-Surface 488); label: 3' end held by stalled T7 RNA polymerase

B1: target 1 insA 3' of 22,insU 3' of 22 (mixed)
RNA 1: CACCCGUGCAAAAAUGCAGGGGUCUAAAACUGAGCGGAUAACCUCUCUAUGG
RNA 2: GGGAAUGGAUCCACAUCUACGAAUUCGUACAUCAUAGAGAGGUUAUCCGCUCACCGAGAUCGGAAGAGCACACGU
  Kd: 12.5 ± 1 nM

B2: target 1 U8G,A14C (mixed)
RNA 1: CACCCGUGCAAAAAUGCAGGGGUCUAAAACUGAGCGGAUAACCUCUCUAUGG
RNA 2: GGGAAUGGAUCCACAUCUACGAAUUCGUACCAUAGAGCGGUUAGCCGCUCACCGAGAUCGGAAGAGCACACGU
  Kd: ~80 nM

B3: target 1 insG 3' of 6,insG 3' of 2 (mixed)
RNA 1: CACCCGUGCAAAAAUGCAGGGGUCUAAAACUGAGCGGAUAACCUCUCUAUGG
RNA 2: GGGAAUGGAUCCACAUCUACGAAUUCGUACCAUAGAGAGGUUAUCCGGCUCGACCGAGAUCGGAAGAGCACACGU
  Kd: 10.4 ± 1.1 nM

B4: target 1 U10A,G15A (mixed)
RNA 1: CACCCGUGCAAAAAUGCAGGGGUCUAAAACUGAGCGGAUAACCUCUCUAUGG
RNA 2: GGGAAUGGAUCCACAUCUACGAAUUCGUACCAUAGAAAGGUAAUCCGCUCACCGAGAUCGGAAGAGCACACGU
  Kd: 31 ± 3 nM

B5: target 1 insC 3' of 13,insU 3' of 6 (mixed)
RNA 1: CACCCGUGCAAAAAUGCAGGGGUCUAAAACUGAGCGGAUAACCUCUCUAUGG
RNA 2: GGGAAUGGAUCCACAUCUACGAAUUCGUACCAUAGAGAGCGUUAUCCUGCUCACCGAGAUCGGAAGAGCACACGU
  Kd: 11 ± 0.9 nM

B6: target 1 complement block 1-10 (mixed)
RNA 1: CACCCGUGCAAAAAUGCAGGGGUCUAAAACUGAGCGGAUAACCUCUCUAUGG
RNA 2: GGGAAUGGAUCCACAUCUACGAAUUCGUACCAUAGAGAGGUAUAGGCGAGUCCGAGAUCGGAAGAGCACACGU
  Kd: 16.6 ± 0.6 nM

B7: target 1 G5A (mixed)
RNA 1: CACCCGUGCAAAAAUGCAGGGGUCUAAAACUGAGCGGAUAACCUCUCUAUGG
RNA 2: GGGAAUGGAUCCACAUCUACGAAUUCGUACCAUAGAGAGGUUAUCCACUCACCGAGAUCGGAAGAGCACACGU
  Kd: 51 ± 8 nM

B8: target 1 insG 3' of 9,insC 3' of 8 (mixed)
RNA 1: CACCCGUGCAAAAAUGCAGGGGUCUAAAACUGAGCGGAUAACCUCUCUAUGG
RNA 2: GGGAAUGGAUCCACAUCUACGAAUUCGUACCAUAGAGAGGUUAGUCCCGCUCACCGAGAUCGGAAGAGCACACGU
  Kd: 29.5 ± 2.9 nM

B9: target 1 insC 3' of 14,insA 3' of 4 (mixed)
RNA 1: CACCCGUGCAAAAAUGCAGGGGUCUAAAACUGAGCGGAUAACCUCUCUAUGG
RNA 2: GGGAAUGGAUCCACAUCUACGAAUUCGUACCAUAGAGACGGUUAUCCGCAUCACCGAGAUCGGAAGAGCACACGU
  Kd: 24.3 ± 1.9 nM

B10: target 1 G13A,A16U (mixed)
RNA 1: CACCCGUGCAAAAAUGCAGGGGUCUAAAACUGAGCGGAUAACCUCUCUAUGG
RNA 2: GGGAAUGGAUCCACAUCUACGAAUUCGUACCAUAGUGAAGUUAUCCGCUCACCGAGAUCGGAAGAGCACACGU
  Kd: 43 ± 6 nM

B11: target 1 insC 3' of 15,insU 3' of 7 (mixed)
RNA 1: CACCCGUGCAAAAAUGCAGGGGUCUAAAACUGAGCGGAUAACCUCUCUAUGG
RNA 2: GGGAAUGGAUCCACAUCUACGAAUUCGUACCAUAGAGCAGGUUAUCUCGCUCACCGAGAUCGGAAGAGCACACGU
  Kd: 17.1 ± 0.9 nM

B12: target 1 del16 (mixed)
RNA 1: CACCCGUGCAAAAAUGCAGGGGUCUAAAACUGAGCGGAUAACCUCUCUAUGG
RNA 2: GGGAAUGGAUCCACAUCUACGAAUUCGUACCAUAGGAGGUUAUCCGCUCACCGAGAUCGGAAGAGCACACGU
  Kd: 46 ± 4 nM

B13: target 1 G12C,A14C (mixed)
RNA 1: CACCCGUGCAAAAAUGCAGGGGUCUAAAACUGAGCGGAUAACCUCUCUAUGG
RNA 2: GGGAAUGGAUCCACAUCUACGAAUUCGUACCAUAGAGCGCUUAUCCGCUCACCGAGAUCGGAAGAGCACACGU
  Kd: 89 ± 33 nM

B14: target 1 U8G,G15A (mixed)
RNA 1: CACCCGUGCAAAAAUGCAGGGGUCUAAAACUGAGCGGAUAACCUCUCUAUGG
RNA 2: GGGAAUGGAUCCACAUCUACGAAUUCGUACCAUAGAAAGGUUAGCCGCUCACCGAGAUCGGAAGAGCACACGU
  Kd: 56 ± 6 nM

B15: target 1 C7A,A20G (mixed)
RNA 1: CACCCGUGCAAAAAUGCAGGGGUCUAAAACUGAGCGGAUAACCUCUCUAUGG
RNA 2: GGGAAUGGAUCCACAUCUACGAAUUCGUACCGUAGAGAGGUUAUACGCUCACCGAGAUCGGAAGAGCACACGU
  Kd: 45 ± 13 nM

B16: target 1 insG 3' of 9,insU 3' of 7 (mixed)
RNA 1: CACCCGUGCAAAAAUGCAGGGGUCUAAAACUGAGCGGAUAACCUCUCUAUGG
RNA 2: GGGAAUGGAUCCACAUCUACGAAUUCGUACCAUAGAGAGGUUAGUCUCGCUCACCGAGAUCGGAAGAGCACACGU
  Kd: 16.4 ± 0.8 nM

B17: target 1 insG 3' of 18,insA 3' of 6 (mixed)
RNA 1: CACCCGUGCAAAAAUGCAGGGGUCUAAAACUGAGCGGAUAACCUCUCUAUGG
RNA 2: GGGAAUGGAUCCACAUCUACGAAUUCGUACCAUAGGAGAGGUUAUCCAGCUCACCGAGAUCGGAAGAGCACACGU
  Kd: 73 ± 25 nM

B18: target 1 A1C,G5A (mixed)
RNA 1: CACCCGUGCAAAAAUGCAGGGGUCUAAAACUGAGCGGAUAACCUCUCUAUGG
RNA 2: GGGAAUGGAUCCACAUCUACGAAUUCGUACCAUAGAGAGGUUAUCCACUCCCCGAGAUCGGAAGAGCACACGU
  Kd: 26 ± 9 nM

B19: target 1 insU 3' of 21,insA 3' of 4 (mixed)
RNA 1: CACCCGUGCAAAAAUGCAGGGGUCUAAAACUGAGCGGAUAACCUCUCUAUGG
RNA 2: GGGAAUGGAUCCACAUCUACGAAUUCGUACCUAUAGAGAGGUUAUCCGCAUCACCGAGAUCGGAAGAGCACACGU
  Kd: 15.6 ± 1.3 nM

B20: target 1 C4G,U10C (mixed)
RNA 1: CACCCGUGCAAAAAUGCAGGGGUCUAAAACUGAGCGGAUAACCUCUCUAUGG
RNA 2: GGGAAUGGAUCCACAUCUACGAAUUCGUACCAUAGAGAGGUCAUCCGGUCACCGAGAUCGGAAGAGCACACGU
  Kd: 5.15 ± 0.3 nM

B21: target 1 C6A,U10A (mixed)
RNA 1: CACCCGUGCAAAAAUGCAGGGGUCUAAAACUGAGCGGAUAACCUCUCUAUGG
RNA 2: GGGAAUGGAUCCACAUCUACGAAUUCGUACCAUAGAGAGGUAAUCAGCUCACCGAGAUCGGAAGAGCACACGU
  Kd: 7.7 ± 0.4 nM

B22: target 1 G13A,A18U (mixed)
RNA 1: CACCCGUGCAAAAAUGCAGGGGUCUAAAACUGAGCGGAUAACCUCUCUAUGG
RNA 2: GGGAAUGGAUCCACAUCUACGAAUUCGUACCAUUGAGAAGUUAUCCGCUCACCGAGAUCGGAAGAGCACACGU
  Kd: 22.5 ± 2 nM

B23: target 1 U19C,A20G (mixed)
RNA 1: CACCCGUGCAAAAAUGCAGGGGUCUAAAACUGAGCGGAUAACCUCUCUAUGG
RNA 2: GGGAAUGGAUCCACAUCUACGAAUUCGUACCGCAGAGAGGUUAUCCGCUCACCGAGAUCGGAAGAGCACACGU
  Kd: 55 ± 22 nM

B24: target 1 insG 3' of 22,insA 3' of 17 (mixed)
RNA 1: CACCCGUGCAAAAAUGCAGGGGUCUAAAACUGAGCGGAUAACCUCUCUAUGG
RNA 2: GGGAAUGGAUCCACAUCUACGAAUUCGUACGCAUAGAAGAGGUUAUCCGCUCACCGAGAUCGGAAGAGCACACGU
  Kd: 71 ± 24 nM

B25: target 1 complement block 2-10 (mixed)
RNA 1: CACCCGUGCAAAAAUGCAGGGGUCUAAAACUGAGCGGAUAACCUCUCUAUGG
RNA 2: GGGAAUGGAUCCACAUCUACGAAUUCGUACCAUAGAGAGGUAUAGGCGAGACCGAGAUCGGAAGAGCACACGU
  Kd: 13.3 ± 0.6 nM

B26: target 1 G15U,A16C (mixed)
RNA 1: CACCCGUGCAAAAAUGCAGGGGUCUAAAACUGAGCGGAUAACCUCUCUAUGG
RNA 2: GGGAAUGGAUCCACAUCUACGAAUUCGUACCAUAGCUAGGUUAUCCGCUCACCGAGAUCGGAAGAGCACACGU
  Kd: 83 ± 16 nM

B27: target 1 G15U,G17U (mixed)
RNA 1: CACCCGUGCAAAAAUGCAGGGGUCUAAAACUGAGCGGAUAACCUCUCUAUGG
RNA 2: GGGAAUGGAUCCACAUCUACGAAUUCGUACCAUAUAUAGGUUAUCCGCUCACCGAGAUCGGAAGAGCACACGU
  Kd: 86 ± 21 nM

B28: target 1 U19A,A20G (mixed)
RNA 1: CACCCGUGCAAAAAUGCAGGGGUCUAAAACUGAGCGGAUAACCUCUCUAUGG
RNA 2: GGGAAUGGAUCCACAUCUACGAAUUCGUACCGAAGAGAGGUUAUCCGCUCACCGAGAUCGGAAGAGCACACGU
  Kd: 56 ± 7 nM
